Experimental data reported in the supplement of paper PMC5998384.

What was measured:
HeLa Kyoto [1] = experiment: solubility in G1/S (NP-40 vs SDS abundance) (log2 ratio); higher = more soluble; conditions: cell cycle stage: G1/S
HeLa Kyoto [2] = experiment: solubility change mitosis vs G1/S (difference of NP-40 vs SDS log2 ratios) (log2 ratio difference); higher = more soluble in mitosis
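Wherever solubility change mitosis vs G1/S (difference of NP-40 vs SDS log2 ratios) is given: synchronized HeLa Kyoto cells (double thymidine block for G1/S, nocodazole release for mitosis), protein amounts in NP-40 versus SDS lysates quantified by mass spectrometry, three biological replicates.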
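Wherever solubility in G1/S (NP-40 vs SDS abundance) is given: HeLa Kyoto cells arrested at G1/S by double thymidine block, proteins quantified by TMT10plex mass spectrometry in mild NP-40 versus SDS extracts, three biological replicates.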

| Sequence | solubility in G1/S (log2) (HeLa Kyoto [1]) | solubility change mitosis (log2) (HeLa Kyoto [2]) |
| --- | --- | --- |
| MAAAFRKAAKSRQREHRERSQPGFRKHLGLLEKKKDYKLRADDYRKKQEYLKALRKKALEKNPDEFYYKMTRVKLQDGVHIIKETKEEVTPEQLKLMRTQDVKYIEMKRVAEAKKIERLKSELHLLDFQGKQQNKHVFFFDTKKEVEQFDVATHLQTAPELVDRVFNRPRIETLQKEKVKGVTNQTGLKRIAKERQKQYNCLTQRIEREKKLFVIAQKIQTRKDLMDKTQKVKVKKETVNSPAIYKFQSRRKR [UTP11L] | -2.71 | 1.5 |
| MAAAKPTLTDSLSFCLAQLAAAAGEALGGEKDPATNETPLSRALLALRTRHIKAAGGIERFRARGGLRPLLALLRRAAAAGSAPSQAGPGSAPSSAASGASSPAPASGPAPSAVSSSSPTPPVRLRKTLDLALSILADCCTEGACRTEVRRLGGILPLVTILQCMKTDSIQNRTARALGNLAMEPESCGDIHCAGAVPLLVESLTACQDSQCLQSVVRALRNLADSPQHRLALAQQGAVRPLAELLATAPDAALTLALVRALLELSRGCSRACAEQLSLGGGLGPLVSLASHPKRAVREGTILILANLCAQGLIRPALGNAGGVEVLVDELRQRRDPNGASPTSQQPLVRAVCLLCREAINRARLRDAGGLDLLMGLLRDPRASAWHPRIVAALVGFLYDTGALGRLQALGLVPLLAGQLCGEAGEEEEEGREAASWDFPEERTPERAQGGSFRSLRSWLISEGYATGPDDISPDWSPEQCPPEPMEPASPAPTPTSLRAPRTQRTPGRSPAAAIEEPWGREGPALLLLSRFSQAPDPSGALVTGPALYGLLTYVTGAPGPPSPRALRILSRLTCNPACLEAFVRSYGAALLRAWLVLGVAPDDWPAPRARPTLHSRHRELGERLLQNLTVQAESPFGVGALTHLLLSGSPEDRVACALTLPFICRKPSLWRRLLLEQGGLRLLLAALTRPAPHPLFLFFAADSLSCLQDLVSPTVSPAVPQAVPMDLDSPSPCLYEPLLGPAPVPAPDLHFLLDSGLQLPAQRAASATASPFFRALLSGSFAEAQMDLVPLRGLSPGAAWPVLHHLHGCRGCGAALGPVPPPGQPLLGSEAEEALEAAGRFLLPGLEEELEEAVGRIHLGPQGGPESVGEVFRLGRPRLAAHCARWTLGSEQCPRKRGLALVGLVEAAGEEAGPLTEALLAVVMGIELGARVPA [ARMC5] | 0.0745 | 0.0453 |
| MAAEEADVDIEGDVVAAAGAQPGSGENTASVLQKDHYLDSSWRTENGLIPWTLDNTISEENRAVIEKMLLEEEYYLSKKSQPEKVWLDQKEDDKKYMKSLQKTAKIMVHSPTKPASYSVKWTIEEKELFEQGLAKFGRRWTKISKLIGSRTVLQVKSYARQYFKNKVKCGLDKETPNQKTGHNLQVKNEDKGTKAWTPSCLRGRADPNLNAVKIEKLSDDEEVDITDEVDELSSQTPQKNSSSDLLLDFPNSKMHETNQGEFITSDSQEALFSKSSRGCLQNEKQDETLSSSEITLWTEKQSNGDKKSIELNDQKFNELIKNCNKHDGRGIIVDARQLPSPEPCEIQKNLNDNEMLFHSCQMVEESHEEEELKPPEQEIEIDRNIIQEEEKQAIPEFFEGRQAKTPERYLKIRNYILDQWEICKPKYLNKTSVRPGLKNCGDVNCIGRIHTYLELIGAINFGCEQAVYNRPQTVDKVRIRDRKDAVEAYQLAQRLQSMRTRRRRVRDPWGNWCDAKDLEGQTFEHLSAEELAKRREEEKGRPVKSLKVPRPTKSSFDPFQLIPCNFFSEEKQEPFQVKVASEALLIMDLHAHVSMAEVIGLLGGRYSEVDKVVEVCAAEPCNSLSTGLQCEMDPVSQTQASETLAVRGFSVIGWYHSHPAFDPNPSLRDIDTQAKYQSYFSRGGAKFIGMIVSPYNRNNPLPYSQITCLVISEEISPDGSYRLPYKFEVQQMLEEPQWGLVFEKTRWIIEKYRLSHSSVPMDKIFRRDSDLTCLQKLLECMRKTLSKVTNCFMAEEFLTEIENLFLSNYKSNQENGVTEENCTKELLM [MYSM1] | -0.108 | -0.109 |
| MAAENSKQFWKRSAKLPGSIQPVYGAQHPPLDPRLTKNFIKERSKVNTVPLKNKKASSFHEFARNTSDAWDIGDDEEEDFSSPSFQTLNSKVALATAAQVLENHSKLRVKPERSQSTTSDVPANYKVIKSSSDAQLSRNSSDTCLRNPLHKQQSLPLRPIIPLVARISDQNASGAPPMTVREKTRLEKFRQLLSSQNTDLDELRKCSWPGVPREVRPITWRLLSGYLPANTERRKLTLQRKREEYFGFIEQYYDSRNEEHHQDTYRQIHIDIPRTNPLIPLFQQPLVQEIFERILFIWAIRHPASGYVQGINDLVTPFFVVFLSEYVEEDVENFDVTNLSQDMLRSIEADSFWCMSKLLDGIQDNYTFAQPGIQKKVKALEELVSRIDEQVHNHFRRYEVEYLQFAFRWMNNLLMRELPLRCTIRLWDTYQSEPEGFSHFHLYVCAAFLIKWRKEILDEEDFQGLLMLLQNLPTIHWGNEEIGLLLAEAYRLKYMFADAPNHYRR [TBC1D22B] | -0.183 | -0.0568 |
